According to patent US20250115886A1 (University of Pennsylvania, published 2025):

B2: Cdc24-mScarlet-TsCC(B) (other, not shown: large carriers)
chain: MAIQTRFASGTSLSDLKPKPSATSISIPMQNVMNKPVTEQDSLFHICANIRKRLEVLPQLKPFLQLAYQSSEVLSERQSLLLSQKQHQELLKSNGANRDSSDLAPTLRSSSISTATSLMSMEGISYTNSNPSATPNMEDTLLTFSMGILPITMDCDPVTQLSQLFQQGAPLCILFNSVKPQFKLPVIASDDLKVCKKSIYDFILGCKKHFAFNDEELFTISDVFANSTSQLVKVLEVVETLMNSSPTIFPSKSKTQQIMNAENQHRHQPQQSSKKHNEYVKIIKEFVATERKYVHDLEILDKYRQQLLDSNLITSEELYMLFPNLGDAIDFQRRFLISLEINALVEPSKQRIGALFMHSKHFFKLYEPWSIGQNAAIEFLSSTLHKMRVDESQRFIINNKLELQSFLYKPVQRLCRYPLLVKELLAESSDDNNTKELEAALDISKNIARSINENQRRTENHQVVKKLYGRVVNWKGYRISKFGELLYFDKVFISTTNSSSEPEREFEVYLFEKIIILFSEVVTKKSASSLILKKKSSTSASISASNITDNNGSPHHSYHKRHSNSSSSNNIHLSSSSAAAIIHSSTNSSDNNSNNSSSSSLFKLSANEPKLDLRGRIMIMNLNQIIPQNNRSLNITWESIKEQGNFLLKFKNEETRDNWSSCLQQLIHDLKNEQFKARHHSSTSTTSSTAKSSSMMSPTTTMNTPNHHNSRQTHDSMASFSSSHMKRVSDVLPKRRTTSSSFESEIKSISENFKNSIPESSILFRISYNNNSNNTSSSEIFTLLVEKVWNFDDLIMAINSKISNTHNNNISPITKIKYQDEDGDFVVLGSDEDWNVAKEMLAENNEKFLNIRLYVEVAEEVKAVSAALSERITQLATELNDKAVRAAERRVAEVTRAAGEQTAQAERELADAAQTVDDLEEKLVELQDRYDSLTLALESERSLRQQHDVEMAQLKERLAAAEENTRQEEERYQEQKTVLQDALNAEQAQHKNTREDLQKRLEQISVEANARTEELKSERDKVNTFLTRLESQENALASEEQQHLATRETLQQRLEQAIADTQARAGEIALERDRVSSLTARLESQEKASSEQLVRMGSEIASLTERCTQLENQRDDARLETMGEKETVAALRGEAEALKRQNQSLMAALSGNKQTGGQNA

Key:
Cdc24-mScarlet-TsCC(B) = biological target: B2; assay: fluorescence microscopy of client localization in yeast
[1] = biological target: TsCC(A)-(RGG)3-GFP scaffold (Caenorhabditis elegans); assay: cell-based or functional assay
RGG-SZ2 = biological target: T1, RGG-SZ2 (Caenorhabditis elegans); assay: fluorescence microscopy of purified proteins, 4 µM
T1 construct: Purified from E. coli; also called single RGG domain tagged with SZ2
T1 chain: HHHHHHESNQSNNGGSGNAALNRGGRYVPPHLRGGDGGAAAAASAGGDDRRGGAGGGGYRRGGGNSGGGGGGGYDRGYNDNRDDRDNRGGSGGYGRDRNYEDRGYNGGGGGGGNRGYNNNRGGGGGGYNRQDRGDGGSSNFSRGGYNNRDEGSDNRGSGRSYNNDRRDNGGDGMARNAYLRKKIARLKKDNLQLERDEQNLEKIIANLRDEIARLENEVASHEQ

B1: (RGG)3 condensates that lack the interaction tag (other)
chain: ESNQSNNGGSGNAALNRGGRYVPPHLRGGDGGAAAAASAGGDDRRGGAGGGGYRRGGGNSGGGGGGGYDRGYNDNRDDRDNRGGSGGYGRDRNYEDRGYNGGGGGGGNRGYNNNRGGGGGGYNRQDRGDGGSSNFSRGGYNNRDEGSDNRGSGRSYNNDRRDNGGDGESNQSNNGGSGNAALNRGGRYVPPHLRGGDGGAAAAASAGGDDRRGGAGGGGYRRGGGNSGGGGGGGYDRGYNDNRDDRDNRGGSGGYGRDRNYEDRGYNGGGGGGGNRGYNNNRGGGGGGYNRQDRGDGGSSNFSRGGYNNRDEGSDNRGSGRSYNNDRRDNGGDGESNQSNNGGSGNAALNRGGRYVPPHLRGGDGGAAAAASAGGDDRRGGAGGGGYRRGGGNSGGGGGGGYDRGYNDNRDDRDNRGGSGGYGRDRNYEDRGYNGGGGGGGNRGYNNNRGGGGGGYNRQDRGDGGSSNFSRGGYNNRDEGSDNRGSGRSYNNDRRDNGGDG
notes: Control scaffold without coiled-coil tag; The other scaffolds carry GFP; also called control scaffolds that lack the cognate coiled-coil tag
binding result (Cdc24-mScarlet-TsCC(B)): no binding

B2
fold decrease in rate of cell proliferation in liquid culture [1]: ~12 fold

B3: SZ1-RGG (other)
chain: HHHHHHMNLVAQLENEVASLENENETLKKKNLHKKDLIAYLEKEIANLRKKIEEESNQSNNGGSGNAALNRGGRYVPPHLRGGDGGAAAAASAGGDDRRGGAGGGGYRRGGGNSGGGGGGGYDRGYNDNRDDRDNRGGSGGYGRDRNYEDRGYNGGGGGGGNRGYNNNRGGGGGGYNRQDRGDGGSSNFSRGGYNNRDEGSDNRGSGRSYNNDRRDNGGDG
notes: Purified from E. coli; also called single RGG domain tagged with SZ1
binding result (RGG-SZ2): binds
